Results published in the DeepSol protein solubility set.

test: soluble on expression in E. coli; label from the status in PepcDB or PDB records

| Sequence | soluble on expression in E. coli |
| --- | --- |
| MYKLNLDIQAFLANDWQQAPKVFKGAFPDFEDPIAADELAGLACEEEVSSRVVVTKGNDWEVISGPFEDYDRFGETHWQLLVQAVNHWYPESQPLVEAFRFLPDWRFDDLMVSFATPQGGVGPHIDNYDVFIIQGEGQRRWTVGPKGNYQRRGGVTTSPLIEDFEPIIDVVLEKGDVLYIPPGFPHQGETLTLALSYSMGYRAPSQQELAGQIADQLMDEDKGHKRFIAVDGAASHGTVSLAEQQGIMQLIRDLCNDTDNVVKVLGKLLSQNRFDLDIQEDESIDADALVEALNEGAVLMRIGGLKVLKMEGDSQARLFVAGESVIIEGASEEELIEVSNSVNVNAELAQLPHWQGFFVQMLQKGYFYLGED | soluble |
| MYKYFDAHCHYSYLKKKYEGYLIAAVSMDYQSAMDTFSLKSDNVLVGVGIHPWRVHEEDLTRILSLIIKADFVGEVGLDYRFAKAPKELQIKYFEEQIKAGEGKLINVHALDAWKDAFNILVKNDVKSAIFHWYTGPINLLKDIESAGYFISINPSVSFQKKHQEVLKNVDLKNVLTESDGGYEYRGKLLEPSDIPNAISFMSNFLGIEEYKLVRIISNNFFKAYGVNPVNN | not soluble |
| MYNNSELRKIQQKKLEILIDIAKFCNENKIRYWLDSGTLLGAVRHGGFIPWDDDIDIIIMQEDAKFLKENYKSENFEIVNTDEEGINFYKVISKKEQVQVGDSIAELDIDIFLVTYYPDSLALKFWNSFFHLKKNRIDRFSFSLFFTNILINLKRKLEKTKLFNYKNIEKKISYILDEAKKKNKAMPNIAYTPDCGFYLIIWREEEIFPLKKMKFEGIEFSIPNNYDTYLKKMYYSYMDLPPKEKRVPEHYQDKELKLIIKLEHHHHHH | not soluble |
| MYQKKDRACRIRRKQCKLFGDWQKSVITQLKTIQDKNISIHKAFGCMIRLAANLFYAHSKIIHFMSEEAGEDAQRKAAEREAKKAEVRKRLEEAGNKKKAKKGFLTPERKKKLRKLLMVKAAEDLKRQQLLKEQERQKALADRTISLPNVDSIDDKGQLEKIYNDLWARLTQLEEEKYDINYVVSQTEAEINSLTIEVNDLRGKFVKPSLKKVSKYDNKFKKSGESKAGTKEDFRANLKIVKKDVMEAIVNVKKKDDKPDWSKKNKDAKAEDSAPAAVAPEAEPVAEEAEAEPEAEEEEGEEEEEE | not soluble |
| MYQLEKEPIVGAETFYVDGAANRETKLGKAGYVTNRGRQKVVTLTDTTNQKTELQAIYLALQDSGLEVNIVTDSQYALGIITQWIHNWKKRGWKTADKKPVKNVDLVNQIIEQLIKKEKVYLAWVPAHKGIGGNEQVDKLVSAGIRKVLF | soluble |
| MYQQSSFKENLIHWFDENQREMPWRQTTNPYYIWLSEVMLQQTQVKTVIDYYHRFVERFPTVEVLSQASEDEVLKYWEGLGYYSRARNFHTAIKEVHDKYEGLVPKDPDQFKALKGVGPYTQAAVMSIAYNVPLATVDGNVFRVWSRLNDDYRDIKLQSTRKSYEQELLPYVTTEAGTFNQAMMELGALICTPKNPLCLFCPVQENCEAFDKGTFEKLPVKSKNVSKKVIEQSVFLIRNNQGQYLLQKRSEKLLHGMWQFPMFESEHARRKMTEKIGHDIQPVETPIFELKHQFTHLTWKIKVYAVSGAINIETLPDDMIWFDLSDRDQYTFPVPMSKIYQFING | not soluble |
| MYQVIRMYGAMEPWWFLDDWKEDITKVLEFDNYHEALQCYQKEWAKLRRRYSDFNSHGDIMTAFWNKQDQHWCEECGDYVQRYHSLALLTDWQETPSSWFRPTFTKQNDTPFRSKCFIKQKNEQGQNLEHHHHHH | not soluble |
| MYRAWDPSLTTIDSFLVNELLLHAHPTKTPPEVTEGQTPSSSSSSSTDSGRETMLEEEEAACCDLDSELARIGDENTAEIRELCLPLEIDSRCNLCAIVSICLRRDPQQKWLLDYCFLCHKCAAAPRTAMATLIVATEFLHLMKLHFRDIAFDNIFKERIVTIFDFHAHFFINRCYTQRDEHPVMVENITLAHMAVTRALLTDDDAVPYTKRRKIQYKLPKKPAPAEPEELRLLDKYRRATEGSFARVLFYIWSGTNVMFNTTLTDLAIKKSKALKALKTRQSEIEPSVGPVFLSPIPTFRLRNATTTVCLLCELMACSYRDNVFLQQLRERITNYSRNNLKIIDRTQLTMAEILSHGRNSEFPQQLKNKDVSIYVTSSPETLAAASRPGTEEPFELSALTYLVLRQVGVIGVYKHLFADPLCAANMRSTDPNILFFDVPNEYLNEAKLAICSTNAYPSRVERDFWLYAHMFKAFQIIKRNFKTKTQLSDFLRDFSQVLESHDFSLVDPSFTVEKYV | not soluble |
| MYSFPNSFRFGWSQAGFQSEMGTPGSEDPNTDWYKWVHDPENMAAGLVSGDLPENGPGYWGNYKTFHDNAQKMGLKIARLNVEWSRIFPNPLPRPQNFDESKQDVTEVEINENELKRLDEYANKDALNHYREIFKDLKSRGLYFILNMYHWPLPLWLHDPIRVRRGDFTGPSGWLSTRTVYEFARFSAYIAWKFDDLVDEYSTMNEPNVVGGLGYVGVKSGFPPGYLSFELSRRAMYNIIQAHARAYDGIKSVSKKPVGIIYANSSFQPLTDKDMEAVEMAENDNRWWFFDAIIRGEITRGNEKIVRDDLKGRLDWIGVNYYTRTVVKRTEKGYVSLGGYGHGCERNSVSLAGLPTSDFGWEFFPEGLYDVLTKYWNRYHLYMYVTENGIADDADYQRPYYLVSHVYQVHRAINSGADVRGYLHWSLADNYEWASGFSMRFGLLKVDYNTKRLYWRPSALVYREIATNGAITDEIEHLNSVPPVKPLRH | soluble |
| MYSGARQGVISGKVTHHNEVFYEFFDKDYKYLFGKVKDIFTDVGAWVEYNVEKVQSHPKNCLHFAQNVNTEVKRTNAPTCDVFSSNRFQFDVREFNKVDFFQFDNADRQLSFKGTIRFNSNKNQFYHEYYGDVLVGEAEKLIRFGINEIDVMMNLYRSDEYTRGPHWYVKHYINKGKSYNINGYLSINGFVLRGPGGVVRNKNQVNIPPDALRPNNPVPNLSNGTSSQELAAAPNRNNFPTYATQRPRRNSDWDDEEPQTTAAPAGTSNSTAAASRPQVGDGKTGFRAFGGDAAPQSRGFDDGAIQRRAFGGLTTAPAAAPNRNNFPTYATQRPRRNSDWDDEDPQTTAAPAGTFNSAAASFRPQVGNGKAGSRAFGGDTAPQRSGLDDGATQRRAFEGLTIAPAAASNRNSFPTFATQRPRRNSDWGDEEPETTVAPAGKSNSTAAASRPQVGNGKTGSRPFGGDTAPQRRGLDDGAIQRRAFGGLTTAPAAAPNQNNFPTFATQRPRRNSDWDDEEPQATDAPAGTFNSAAASFRPQVGNGKAGSRAFGGDTAPQTSGLDDGAIERRAFGALATAPREVVLGGERAAGQLRPRGPESTIQPRRVPQSRQFGGVSATSNDPTTPEPRRINETPRVLLPPQSKGRRVDS | not soluble |
| MYSKIEGSIITARFDKETDFFTDLVDLCNKYEVKSGTVLWAIGMLKEFQIGYWNGNDYEKETFRERLELVSLHGSIAENDPRFHIHAAGARGNHGIVGGHLFSAKVDPLVEIQIMKITGFSMSRELDNSDGLYKLVIKLEHHHHHH | not soluble |
| MYTIQANPSGTRSIEVSSENLKTIEKYALFRHLIDSTGIVDEPVLDKLKLNIRSLIASQEEDSKELLDLCIDVIYHNNMKAFGLQQLIKLYLTWLSTQDAEEEEE | soluble |
| MYVSSPTLTDKVSKMICQDILTGELKPGQKLVVAELKEKYNVGASPIREALVQLSWSKYVKLAPQKGCWVAPVCKHELNDLYESLRMTASFLLKKAIMTGDENWELDVLTSYHKLSRVNLDQGFCWREWEERHYHFLEALLEGANSHNLFTFFRDILNQIKRYHYFAMQVLGTNNQGHCNIDEQEMIMKLSLSKNSDDAVQFLDRYLLKSLQCVETAIDNPL | soluble |
| MYYHALKLSRLAMLTLAGVAVSASAIAADSAPTSQIGPTAEAYIVSHPDKVGEVVATYLAEHPEFLVAASETLHQRQQIAQQQAYVQLALQYRAELLSSSSPSVGPNEAKAAVVMFFDYQCSWCSKMAPVVENLIKANPDTRFIFKEFPIFSSRWPVSGLAARVGEQVWLTQGGAKYLDWHNALYATGKVEGALTEHDVYTLAQHYLTPTQLAAVKEAQSSGAVHDALLTNQALAQHMDFSGTPAFVVMPQTQDGDVKRVTVIPGSTTQDMLQMAIQKAKG | not soluble |
| NAIMDLQTRNTRGLSTLVVRDIGELMMAGDMAVIERYVADVRGKGAVLDLRIYDAAGRPAGKKQDAPDGEVQAALTSGATAEKRHKVDGRHVLSFIVPLANEVRCQSCHEQGARFNGAMLLTTSLEEGYAGARN | soluble |
| NALRRDPNLPVHIRGWLHKQDSSGLRLWKRRWFVLSGHCLFYYKDSREESVLGSVLLPSYNIRPDGPGAPRGRRFTFTAEHPGMRTYVLAADTLEDLRGWLRALGRASRAEGDDYGQPRSPAR | soluble |
| NATNRRDTVLAAMVDAGKLTKSQAKEAASIGMKNRLADTYAGKINDYRYPSYFDAVVNEAIDTYGISEKDIVNNGY | not soluble |
| NDRFSWDTQFNISTIKNKLTSLIDEKPIPVGNHVLQVGQPIGSFYMYKMDGIYQDNQEVPEKLYAKGVRAGDIKYADKDNDGDLTPADKEIVGKPLPDFFGGLTNRFRYGNFDLTIFNTFSVGNDVYATGMGGIDAVGHNNYGMRKDIAANRWTGPGTNNSIPRAMISTHNTQASTYLLHDGSYFKFKDVTLGYTLPSNLTQKLNISNMRVYLSAQNLWTISSYPGYDPEVSYSVNNSKTMGEDAMTVPQLRTFVCGFNLTF | not soluble |
| NGAQAFVSAQTSTIPKTAFTAHDFVDYTLPQEQKGKEQKEQQWMKNSQTKDTDVHPYADFAVLEILLFPDSSTDRKIFNHFIQPAIRAYKQLGDSLNIFANQTLDQPKHNRYYLLGYPFLRNKAASLFLNQTEQR | soluble |
| NGYEALIMTHSAVTDPPLMIRSADNSLIKADDKTLLTALEAEGIGSYSFILTGEGLVKTKYRQQAVSLMGVDDRYPRTVKIDSIVFAGTFATDTLSGATALNVGAAIATEMQLGAGFVEAVEVIVPRRIGLINPLVPAGAFKSLQGQVASVFASGLQPEDNSIILSIDSLRKLLDYSDHEAEAVAIQLRTGSDAEQIALRLKETLGDSYQVLDLAGQHPEITHLIAMEKWMS | not soluble |
| NIEQGLYAMLGVYVSSKTIDVVQVGFNRSKMALIITKQEQAVKEAVLQKIDRGVTKISAVGGYTDDDRPILMCVVGQTEFTKLKQIVKQIDESAFVIVADASEVLGEGFKRA | not soluble |
| NKFECNLVHSKVPMGKFYFRSEPNNKISFISDIRGEGKEWQGATLISQNAPWGEELYRKVESSLTVTKPSRRFVFRKGAPSLMKAIAGGSWITLVLEGKDASALSEVRIPTIQIQKALGEFNACRERLPK | not soluble |
| NKNFSWNVNFNLTHFKNKVLELSPELNGQLIDGARIYREDESMYQLYLPKYVGVDSETGESLWALVTPDENGNTVTKSYSVASENRFASGDILPKVYGGFGTSVTAYGFDLSVSFAYQLGGRILDYTYQGLMDVAATGSALHKDMLKAWTPENKNTDVPRMNINDQYTNRLTDRFLTSSDYLSLQNITLGYTLPKSLTRKMQIDGVRVFFVADNVALLTARKGLDPRQGYVAADNVYSPIRTISGGISLNF | not soluble |
